The target in test [1] is MBS (myosin-binding subunit of myosin phosphatase), endogenous in MDCK cells (dog (endogenous in MDCK)). Put plainly: co-IP.
Test [2] deals with HA-full-length moesin (1–577 aa) (mouse) (UniProt P26041). The test can be described thus: pull-down.
In test [3] the target is GST-moesin (1–323 aa) (human) (UniProt P26038). Put plainly: pull-down.

In general, Kd refers to the constant that tells how readily two partners part at equilibrium. A low value points to a tighter complex. The stoichiometry N is a count of units in the complex or per binding partner.

Sequence of UniProt P26038 (P26038 1-323): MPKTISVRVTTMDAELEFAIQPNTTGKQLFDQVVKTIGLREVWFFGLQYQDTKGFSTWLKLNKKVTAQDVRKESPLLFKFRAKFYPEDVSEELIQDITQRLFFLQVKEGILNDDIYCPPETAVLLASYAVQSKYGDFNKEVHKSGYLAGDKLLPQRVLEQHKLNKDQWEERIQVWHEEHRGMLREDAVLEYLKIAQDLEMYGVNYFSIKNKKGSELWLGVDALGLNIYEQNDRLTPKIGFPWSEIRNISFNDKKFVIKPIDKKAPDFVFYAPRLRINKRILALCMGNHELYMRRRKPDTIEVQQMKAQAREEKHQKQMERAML
Sequence of UniProt P26041 (P26041 whole entry, the tested form may be a part): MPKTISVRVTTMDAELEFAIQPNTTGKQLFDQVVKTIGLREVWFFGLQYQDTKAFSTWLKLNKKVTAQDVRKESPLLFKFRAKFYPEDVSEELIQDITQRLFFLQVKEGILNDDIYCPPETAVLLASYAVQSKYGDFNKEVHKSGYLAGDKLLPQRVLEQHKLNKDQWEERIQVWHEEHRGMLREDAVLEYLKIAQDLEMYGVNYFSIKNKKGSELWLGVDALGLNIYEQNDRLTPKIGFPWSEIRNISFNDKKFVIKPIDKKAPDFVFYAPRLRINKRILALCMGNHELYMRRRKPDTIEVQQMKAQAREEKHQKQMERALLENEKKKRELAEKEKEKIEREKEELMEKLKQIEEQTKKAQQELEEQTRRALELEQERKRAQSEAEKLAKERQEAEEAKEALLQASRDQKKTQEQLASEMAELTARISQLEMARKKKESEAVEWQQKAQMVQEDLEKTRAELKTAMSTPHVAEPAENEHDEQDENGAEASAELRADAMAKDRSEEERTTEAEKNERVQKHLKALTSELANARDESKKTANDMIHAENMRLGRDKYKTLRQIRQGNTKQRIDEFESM

Take “moesin, endogenous in MDCK cells (natural protein)”: in test [1], the percent of total moesin recovered with immunoprecipitated MBS amounted to 0.5% and the stoichiometry N (moesin per MBS) was found to be 0.33.

In turn, “recombinant full-length rat MBS (1–976 aa), myosin-binding subunit of myosin phosphatase (natural protein)” displayed a Kd in test [2] of 1230 nM. Also, in test [3], the Kd was 260 nM and the stoichiometry N worked out at 0.4.

The values are drawn from publication PMC2148462.
